{"source": "paper PMC10018365", "about": "“Cryo-EM structure of the fully assembled Elongator complex” (Nucleic Acids Research, 2023)", "target": "the molecule itself", "assay": "cryo-EM structure; ScElongator purified from overexpressing yeast, native sample (4.35 Å) and BS3-stabilised sample (6.6 Å; two-lobed map 17.2 Å); sample buffer 20 mM HEPES pH 7.5, 100 mM NaCl, 3 mM DTT"}
{"protein": "Saccharomyces cerevisiae Elp1 (natural protein, UniProt Q06706 1-1349, looked up, Elp1, S. cerevisiae, full-length ORF; also called ScElp1; source: S. cerevisiae DS1-2b, overexpressed, purified within ScElongator) MVEHDKSGSKRQELRSNMRNLITLNKGKFKPTASTAEGDEDDLSFTLLDSVFDTLSDSITCVLGSTDIGAIEVQQFMKDGSRNVLASFNIQTFDDKLLSFVHFADINQLVFVFEQGDIITATYDPVSLDPAETLIEIMGTIDNGIAAAQWSYDEETLAMVTKDRNVVVLSKLFEPISEYHLEVDDLKISKHVTVGWGKKETQFRGKGARAMEREALASLKASGLVGNQLRDPTMPYMVDTGDVTALDSHEITISWRGDCDYFAVSSVEEVPDEDDETKSIKRRAFRVFSREGQLDSASEPVTGMEHQLSWKPQGSLIASIQRKTDLGEEDSVDVIFFERNGLRHGEFDTRLPLDEKVESVCWNSNSEALAVVLANRIQLWTSKNYHWYLKQELYASDISYVKWHPEKDFTLMFSDAGFINIVDFAYKMAQGPTLEPFDNGTSLVVDGRTVNITPLALANVPPPMYYRDFETPGNVLDVACSFSNEIYAAINKDVLIFAAVPSIEEMKKGKHPSIVCEFPKSEFTSEVDSLRQVAFINDSIVGVLLDTDNLSRIALLDIQDITQPTLITIVEVYDKIVLLRSDFDYNHLVYETRDGTVCQLDAEGQLMEITKFPQLVRDFRVKRVHNTSAEDDDNWSAESSELVAFGITNNGKLFANQVLLASAVTSLEITDSFLLFTTAQHNLQFVHLNSTDFKPLPLVEEGVEDERVRAIERGSILVSVIPSKSSVVLQATRGNLETIYPRIMVLAEVRKNIMAKRYKEAFIVCRTHRINLDILHDYAPELFIENLEVFINQIGRVDYLNLFISCLSEDDVTKTKYKETLYSGISKSFGMEPAPLTEMQIYMKKKMFDPKTSKVNKICDAVLNVLLSNPEYKKKYLQTIITAYASQNPQNLSAALKLISELENSEEKDSCVTYLCFLQDVNVVYKSALSLYDVSLALLVAQKSQMDPREYLPFLQELQDNEPLRRKFLIDDYLGNYEKALEHLSEIDKDGNVSEEVIDYVESHDLYKHGLALYRYDSEKQNVIYNIYAKHLSSNQMYTDAAVAYEMLGKLKEAMGAYQSAKRWREAMSIAVQKFPEEVESVAEELISSLTFEHRYVDAADIQLEYLDNVKEAVALYCKAYRYDIASLVAIKAKKDELLEEVVDPGLGEGFGIIAELLADCKGQINSQLRRLRELRAKKEENPYAFYGQETEQADDVSVAPSETSTQESFFTRYTGKTGGTAKTGASRRTAKNKRREERKRARGKKGTIYEEEYLVQSVGRLIERLNQTKPDAVRVVEGLCRRNMREQAHQIQKNFVEVLDLLKANVKEIYSISEKDRERVNENGEVYYIPEIPVPEIHDFPKSHIVDF", "values": [{"measurement": "binding result", "value": "binds"}]}
